Laboratory results reported in PMC4432619, “The structure of FMNL2–Cdc42 yields insights into the mechanism of lamellipodia and filopodia formation” (Nature Communications, 2015).

B3: FMNL1NCC (1–458, Δ172–198) (domain or fragment, human, UniProt O95466 1-458, looked up)
chain: MGNAAGSAEQPAGPAAPPPKQPAPPKQPMPAAGELEERFNRALNCMNLPPDKVQLLSQYDNEKKWELICDQERFQVKNPPAAYIQKLKSYVDTGGVSRKVAADWMSNLGFKRRVQESTQVLRELETSLRTNHIGWVQEFLNEENRGLDVLLEYLAFAQCSVTYDMESTDNGSRHLTIKLTPAHSRKALRNSRIVSQKDDVHVCIMCLRAIMNYQSGFSLVMNHPACVNEIALSLNNKNPRTKALVLELLAAVCLVRGGHDIILAAFDNFKEVCGEQHRFEKLMEYFRNEDSNIDFMVACMQFINIVVHSVENMNFRVFLQYEFTHLGLDLYLERLRLTESDKLQVQIQAYLDNIFDVGALLEDTETKNAVLEHMEELQEQVALLTERLRDAENESMAKIAELEKQLSQARKELETLRERFSESTAMGPSRR
notes: also called FMNL1NCC(Δ172–198); FMNL1 (1–458, Δ172–198); source: E. coli, purified (GSH Sepharose, TEV cleavage, gel filtration); not shown: GST, N-terminal, cleaved

Tests used:
[1] = target: T1, FMNL2N(Δloop) (residues 1–379, Δaa 144–218) (human, UniProt Q96PY5 1-379, Δaa 144–218); test: ITC; GppNHp-loaded GTPase at 500 μM injected from the syringe into 50 μM FMNL in the cell; 20 mM Tris/HCl pH 8, 150 mM NaCl, 5 mM MgCl2, 1 mM DTE, 298 K; MicroCal iTC200; conditions: both partners purified
T1 construct: source: E. coli, purified (GSH Sepharose, TEV cleavage, gel filtration); not shown: GST, N-terminal, cleaved
T1 sequence (Q96PY5 other isoform, or with tags, fused parts or gaps Δaa 144–218 | Δaa 144–218 | mutant): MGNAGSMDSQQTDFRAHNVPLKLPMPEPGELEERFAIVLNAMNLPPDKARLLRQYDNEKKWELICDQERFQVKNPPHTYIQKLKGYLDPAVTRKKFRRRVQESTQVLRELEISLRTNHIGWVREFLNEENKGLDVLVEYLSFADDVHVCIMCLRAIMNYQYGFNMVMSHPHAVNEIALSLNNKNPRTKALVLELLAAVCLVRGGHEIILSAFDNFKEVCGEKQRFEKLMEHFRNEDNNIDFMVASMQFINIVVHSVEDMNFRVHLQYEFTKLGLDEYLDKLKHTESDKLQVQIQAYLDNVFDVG

[2] = target: B3; test: crystal structure; complexes formed by equimolar mixing of the FMNL fragment with GppNHp-loaded Cdc42 (1–179) in high salt buffer and overnight dialysis at 277 K into 20 mM Tris/HCl pH 8.0, 150 mM NaCl, 5 mM MgCl2, 1 mM DTE; hanging drop vapour diffusion at 293 K; conditions: both partners purified
[3] = target: myrFMNL2N (myristoylated FMNL2N, residues 2–379) (human, UniProt Q96PY5 2-379, N-terminal myristoylation (myrFMNL2N)); test: ITC; Cdc42·GppNHp titrated to myrFMNL2N at liposomes; 25 °C; conditions: both partners purified
Sequence of myrFMNL2N (myristoylated FMNL2N, residues 2–379) (Q96PY5 2-379): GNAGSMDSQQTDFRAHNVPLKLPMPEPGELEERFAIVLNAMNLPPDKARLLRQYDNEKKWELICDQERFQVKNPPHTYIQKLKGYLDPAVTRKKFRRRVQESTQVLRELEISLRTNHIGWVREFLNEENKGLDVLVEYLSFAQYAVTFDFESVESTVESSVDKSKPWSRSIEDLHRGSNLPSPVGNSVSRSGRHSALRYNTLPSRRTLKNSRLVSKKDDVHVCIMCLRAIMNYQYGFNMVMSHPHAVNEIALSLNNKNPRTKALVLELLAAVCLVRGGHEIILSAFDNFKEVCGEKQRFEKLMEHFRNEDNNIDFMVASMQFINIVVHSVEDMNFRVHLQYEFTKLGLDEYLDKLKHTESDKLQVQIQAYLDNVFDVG

[4] = target: the molecule itself; test: SEC; size exclusion chromatography of full-length recombinant FMNL1 from insect cells; data not shown
[5] = target: the molecule itself; test: crystal structure; complexes formed by equimolar mixing of the FMNL fragment with GppNHp-loaded Cdc42 (1–179) in high salt buffer and overnight dialysis at 277 K into 20 mM Tris/HCl pH 8.0, 150 mM NaCl, 5 mM MgCl2, 1 mM DTE; hanging drop vapour diffusion at 293 K

B1: Cdc42 (1–179) (domain or fragment)
chain: not shown
notes: Loaded with the non-hydrolysable GTP analogue GppNHp and Mg2+ in all rows written here; also called Cdc42·GppNHp; active Cdc42; source: E. coli, GST fusion, purified; nucleotide exchanged for GppNHp
- Kd [1]: 1340 ± 170 nM
- dH [1]: -2.39 ± 0.04 kcal/mol
- stoichiometry N [1]: 1
- binding result [2]: binds
- Kd [3]: 1790 ± 760 nM
- dH [3]: -2.77 ± 0.29 kcal/mol
- stoichiometry N [3]: 0.93

B2: Full-length, recombinant FMNL1 protein (natural protein, human, UniProt O95466 1-1100, looked up)
chain: MGNAAGSAEQPAGPAAPPPKQPAPPKQPMPAAGELEERFNRALNCMNLPPDKVQLLSQYDNEKKWELICDQERFQVKNPPAAYIQKLKSYVDTGGVSRKVAADWMSNLGFKRRVQESTQVLRELETSLRTNHIGWVQEFLNEENRGLDVLLEYLAFAQCSVTYDMESTDNGASNSEKNKPLEQSVEDLSKGPPSSVPKSRHLTIKLTPAHSRKALRNSRIVSQKDDVHVCIMCLRAIMNYQSGFSLVMNHPACVNEIALSLNNKNPRTKALVLELLAAVCLVRGGHDIILAAFDNFKEVCGEQHRFEKLMEYFRNEDSNIDFMVACMQFINIVVHSVENMNFRVFLQYEFTHLGLDLYLERLRLTESDKLQVQIQAYLDNIFDVGALLEDTETKNAVLEHMEELQEQVALLTERLRDAENESMAKIAELEKQLSQARKELETLRERFSESTAMGPSRRPPEPEKAPPAAPTRPSALELKVEELEEKGLIRILRGPGDAVSIEILPVAVATPSGGDAPTPGVPTGSPSPDLAPAAEPAPGAAPPPPPPLPGLPSPQEAPPSAPPQAPPLPGSPEPPPAPPLPGDLPPPPPPPPPPPGTDGPVPPPPPPPPPPPGGPPDALGRRDSELGPGVKAKKPIQTKFRMPLLNWVALKPSQITGTVFTELNDEKVLQELDMSDFEEQFKTKSQGPSLDLSALKSKAAQKAPSKATLIEANRAKNLAITLRKGNLGAERICQAIEAYDLQALGLDFLELLMRFLPTEYERSLITRFEREQRPMEELSEEDRFMLCFSRIPRLPERMTTLTFLGNFPDTAQLLMPQLNAIIAASMSIKSSDKLRQILEIVLAFGNYMNSSKRGAAYGFRLQSLDALLEMKSTDRKQTLLHYLVKVIAEKYPQLTGFHSDLHFLDKAGSVSLDSVLADVRSLQRGLELTQREFVRQDDCMVLKEFLRANSPTMDKLLADSKTAQEAFESVVEYFGENPKTTSPGLFFSLFSRFIKAYKKAEQEVEQWKKEAAAQEAGADTPGKGEPPAPKSPPKARRPQMDLISELKRRQQKEPLIYESDRDGAIEDIITVIKTVPFTARTGKRTSRLLCEASLGEEMPL
notes: also called full-length FMNL1; source: expressed from insect cells
- stoichiometry N [4]: 2

Binder: B3
- binding result [5]: binds
